Positions count from the first letter of the chain named. Starred links: 1 amine or outer side, 2 acyl side, 3 side chain; linkers in the order of their positions; H or OH if unused. Non-standard residues stand in square brackets, D forms with d. Groups on a side chain read outwards from the residue. No end group written: not given here. *: point of attachment. 2OEGgEgE‑C18 diacid = O=C(O)CCCCCCCCCCCCCCCCC(=O)N[C@@H](CCC(=O)N[C@@H](CCC(=O)NCCOCCOCC(=O)NCCOCCOCC(=O)*)C(=O)O)C(=O)O; C18 diacid = O=C(O)CCCCCCCCCCCCCCCCC(=O)*; C17 diacid = O=C(O)CCCCCCCCCCCCCCCC(=O)*; γGlu = O=C(O)[C@H](CCC(=O)[*:2])N[*:1]; NMeY = CN[C@@H](Cc1ccc(O)cc1)C(=O)O; AEEA = NCCOCCOCC(=O)O; E∗ = not defined here; K∗ = not defined here; Aib = CC(C)(N)C(=O)O
T1: full-length human GIPR with an N-terminal FLAG tag (human, UniProt P48546 22-466)
T1 sequence (looked up): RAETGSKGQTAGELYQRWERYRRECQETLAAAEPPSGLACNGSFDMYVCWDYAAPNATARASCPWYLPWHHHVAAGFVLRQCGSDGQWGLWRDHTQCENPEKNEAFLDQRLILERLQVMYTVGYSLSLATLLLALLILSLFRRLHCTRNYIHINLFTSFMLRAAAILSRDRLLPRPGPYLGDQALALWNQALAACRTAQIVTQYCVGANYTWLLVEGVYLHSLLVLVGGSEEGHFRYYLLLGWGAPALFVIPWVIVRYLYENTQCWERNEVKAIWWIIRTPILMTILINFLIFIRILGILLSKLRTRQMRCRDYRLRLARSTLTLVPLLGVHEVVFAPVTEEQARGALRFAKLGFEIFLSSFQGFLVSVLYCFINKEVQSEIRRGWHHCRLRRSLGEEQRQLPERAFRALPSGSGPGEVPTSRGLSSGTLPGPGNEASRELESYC

T2: full-length human GIPR with an N-terminal FLAG tag, overexpressed on HEK-293T cells (human, UniProt P48546 22-466)
T2 sequence (looked up): T1 sequence (looked up)

B1: Compound No. 38 (peptide)
peptide: YXEGTFISDYSIAXDRXAQXDFVNWLLAQSPSSGAPPPS
modifications: N-methyl Tyr 1; Aib at 2,17,20; Lys(G5-C18 diacid) at 14; C-terminal NH2
B2: Compound No. 47 (peptide)
peptide: B1 peptide with A13X
modifications: N-methyl Tyr 1; Aib at 2,13,17,20; Lys(G5-C18 diacid) at 14; C-terminal OH
B3: Compound No. 43 (peptide)
peptide: B1 peptide with S30R
modifications: N-methyl Tyr 1; Aib at 2,17,20; Lys(G5-C18 diacid) at 14; C-terminal OH
B4: Compound No. 45 (peptide)
peptide: B1 peptide with D21N
modifications: N-methyl Tyr 1; Aib at 2,17,20; Lys(G5-C18 diacid) at 14; C-terminal OH
B5: Compound No. 44 (peptide)
peptide: B1 peptide with D21N, S30R
modifications: N-methyl Tyr 1; Aib at 2,17,20; Lys(G5-C18 diacid) at 14; C-terminal OH
B6: Compound No. 51 (peptide)
peptide: B1 peptide with X14L, S30R
modifications: N-methyl Tyr 1; Aib at 2,20; Lys(G5-C18 diacid) at 17; C-terminal OH
B7: Compound No. 48 (peptide)
peptide: B1 peptide with A13X
modifications: N-methyl Tyr 1; Aib at 2,13,17,20; Lys(G5-C18 diacid) at 14; C-terminal NH2
B8: Compound No. 33 (peptide)
peptide: [NMeY][Aib]EGTFISDYSI[Aib]LDR[Aib]AQ[Aib]NFVNWLLAQK([AEEA-AEEA-γGlu-γGlu-C17 diacid])GGGGS-NH2
B9: Compound No. 3 (peptide)
peptide: [NMeY][Aib]EGTFISDYSIAK([AEEA-AEEA-γGlu-C18 diacid])DRIHQQNFVNWLLAQRPSSGAPPPS-NH2
B10: Compound No. 32 (peptide)
peptide: [NMeY][Aib]EGTFISDYSI[Aib]K([AEEA-AEEA-γGlu-γGlu-C17 diacid])DR[Aib]AQ[Aib]NFVNWLLAQRGGGGS-NH2
B11: Compound No. 34 (peptide)
peptide: [NMeY][Aib]EGTFISDYSIAK([G5-γGlu-γGlu-C18 diacid])DR[Aib]AQ[Aib]NFVNWLLAQRPSSGAPPPS-NH2
B12: Compound No. 42 (peptide)
peptide: [NMeY][Aib]EGTFISDYSIALDR[Aib]AQ[Aib]K(2OEGgEgE‑C18 diacid)FVNWLLAQSG-OH
B13: Compound No. 30 (peptide)
peptide: [NMeY][Aib]EGTFISDYSIALDR[Aib]AQ[Aib]K([AEEA-AEEA-γGlu-γGlu-C17 diacid])FVNWLLAQRGGGGS-NH2
B14: Compound No. 35 (peptide)
peptide: [NMeY][Aib]EGTFISDYSIALDR[Aib]AQ[Aib]K([AEEA-AEEA-γGlu-γGlu-C18 diacid])FVNWLLAQRPSSGAPPPS-NH2
B15: Compound No. 31 (peptide)
peptide: [NMeY][Aib]EGTFISDYSIALDR[Aib]K([AEEA-AEEA-γGlu-γGlu-C17 diacid])Q[Aib]NFVNWLLAQSGGGGS-NH2
B16: Compound No. 49 (peptide)
peptide: [NMeY][Aib]EGTFISDYSIALDR[Aib]K(2OEGgEgE‑C18 diacid)Q[Aib]DFVNWLLAQRG-OH
modifications: N-terminus assumed
SMILES: CC[C@H](C)[C@H](NC(=O)[C@H](CO)NC(=O)[C@H](Cc1ccc(O)cc1)NC(=O)[C@H](CC(=O)O)NC(=O)[C@H](CO)NC(=O)[C@@H](NC(=O)[C@H](Cc1ccccc1)NC(=O)[C@@H](NC(=O)CNC(=O)[C@H](CCC(=O)O)NC(=O)C(C)(C)NC(=O)[C@H](Cc1ccc(O)cc1)NC)[C@@H](C)O)[C@@H](C)CC)C(=O)N[C@@H](C)C(=O)N[C@@H](CC(C)C)C(=O)N[C@@H](CC(=O)O)C(=O)N[C@@H](CCCNC(=N)N)C(=O)NC(C)(C)C(=O)N[C@@H](CCCCNC(=O)COCCOCCNC(=O)COCCOCCNC(=O)CC[C@H](NC(=O)CC[C@H](NC(=O)CCCCCCCCCCCCCCCCC(=O)O)C(=O)O)C(=O)O)C(=O)N[C@@H](CCC(N)=O)C(=O)NC(C)(C)C(=O)N[C@@H](CC(=O)O)C(=O)N[C@@H](Cc1ccccc1)C(=O)N[C@H](C(=O)N[C@@H](CC(N)=O)C(=O)N[C@@H](Cc1c[nH]c2ccccc12)C(=O)N[C@@H](CC(C)C)C(=O)N[C@@H](CC(C)C)C(=O)N[C@@H](C)C(=O)N[C@@H](CCC(N)=O)C(=O)N[C@@H](CCCNC(=N)N)C(=O)NCC(=O)O)C(C)C
B17: Compound No. 46 (peptide)
peptide: [NMeY][Aib]EGTFISDYSIALDR[Aib]K(2OEGgEgE‑C18 diacid)Q[Aib]NFVNWLLAQSG-OH
modifications: N-terminus assumed
SMILES: CC[C@H](C)[C@H](NC(=O)[C@H](CO)NC(=O)[C@H](Cc1ccc(O)cc1)NC(=O)[C@H](CC(=O)O)NC(=O)[C@H](CO)NC(=O)[C@@H](NC(=O)[C@H](Cc1ccccc1)NC(=O)[C@@H](NC(=O)CNC(=O)[C@H](CCC(=O)O)NC(=O)C(C)(C)NC(=O)[C@H](Cc1ccc(O)cc1)NC)[C@@H](C)O)[C@@H](C)CC)C(=O)N[C@@H](C)C(=O)N[C@@H](CC(C)C)C(=O)N[C@@H](CC(=O)O)C(=O)N[C@@H](CCCNC(=N)N)C(=O)NC(C)(C)C(=O)N[C@@H](CCCCNC(=O)COCCOCCNC(=O)COCCOCCNC(=O)CC[C@H](NC(=O)CC[C@H](NC(=O)CCCCCCCCCCCCCCCCC(=O)O)C(=O)O)C(=O)O)C(=O)N[C@@H](CCC(N)=O)C(=O)NC(C)(C)C(=O)N[C@@H](CC(N)=O)C(=O)N[C@@H](Cc1ccccc1)C(=O)N[C@H](C(=O)N[C@@H](CC(N)=O)C(=O)N[C@@H](Cc1c[nH]c2ccccc12)C(=O)N[C@@H](CC(C)C)C(=O)N[C@@H](CC(C)C)C(=O)N[C@@H](C)C(=O)N[C@@H](CCC(N)=O)C(=O)N[C@@H](CO)C(=O)NCC(=O)O)C(C)C
B18: Compound No. 209 (peptide)
peptide: Me-Y[Aib]EGTFISDYSI[Aib]LDR[Aib]AQ[Aib]KFVNWLLAQRG-OH
modifications: not fully specified (residues 1, 21)
B19: Compound No. 184 (peptide)
peptide: [NMeY][Aib]EGTFISDYSIAEDRKHQ[Aib]NFVNWLLAQK([AEEA-AEEA-γGlu-C18 diacid])PSSGAPPPS-NH2
modifications: also: E* at 14 and K* at 17 marked * (not explained)
B20: Compound No. 211 (peptide)
peptide: [NMeY][Aib]EGTFISDYSI[Aib]LDK[Aib]AQ[Aib]K([AEEA-AEEA-γGlu-γGlu-C18 diacid])FVNWLLAQRG-OH
B21: Compound No. 181 (peptide)
peptide: Me-Y[Aib]EGTFISDYSIALDR[Aib]HQQ[E∗]FV[K∗]WLLAQK([AEEA-AEEA-γGlu-C18 diacid])PSSGAPPPS-NH2
modifications: not fully specified (residue 1); reading uncertain; also: E* at 21 and K* at 24 marked, meaning not given here
B22: Compound No. 220 (peptide)
peptide: [NMeY][Aib]EGTFISDYSI[Aib]LDK[Aib]AQ[Aib]K([AEEA-AEEA-γGlu-γGlu-C18 diacid])FVNWLLAQRG-OH

Biological target: T1, full-length human GIPR with an …
Assay: cell-based or functional assay

| Binder | Human GIPR cAMP EC50, HEK293T [nM] |
| --- | --- |
| B1 | 0.0006 |
| B2 | 0.0008 |
| B3 | 0.001 |
| B4 | 0.0006 |
| B5 | 0.0017 |
| B6 | 0.0006 |
| B7 | 0.0007 |
| B8 | 0.0008 |
| B9 | 0.0006 |
| B10 | 0.0003 |
| B11 | 0.0004 |
| B12 | 0.0008 |
| B13 | 0.0006 |
| B14 | 0.0007 |
| B15 | 0.0003 |
| B16 | 0.0006 |
| B17 | 0.0003 |

Biological target: full-length human GLP-1R with an N-terminal FLAG tag (human, UniProt P43220 24-463)
Assay: cell-based or functional assay

| Binder | Human GLP1R cAMP EC50, HEK293T [nM] |
| --- | --- |
| B1 | 45.7 |
| B2 | 148 |
| B3 | 61.7 |
| B4 | 8.22 |
| B5 | 10.7 |
| B6 | 14.8 |
| B7 | 87.1 |
| B8 | 437 |
| B9 | 10.5 |
| B10 | 1000 |
| B11 | 1000 |
| B12 | 5.5 |
| B13 | 105 |
| B14 | 89.1 |
| B15 | 170 |
| B16 | 107 |
| B17 | 105 |

Biological target: T2, full-length human GIPR with an …
Assay: cell-based or functional assay

| Binder | Human GIPR cAMP EC50, HEK293T [nM] |
| --- | --- |
| B18 | 0.0004 |
| B19 | 0.0005 |
| B20 | 0.0005 |
| B21 | 0.0004 |
| B22 | 0.0005 |

— US20230143604A1, “QW DOSING OF GIP RECEPTOR AGONIST PEPTIDE COMPOUNDS AND USES THEREOF” (TAKEDA PHARMACEUTICAL COMPANY LIMITED, priority 2020, published 2023)
